assay: soluble on expression in E. coli; label from the status in PepcDB or PDB records

| Sequence | soluble on expression in E. coli |
| --- | --- |
| MAHHHHHHMFCNLNVCLAFLSSQYGKENMNARKPLAVSAGTNSRSGEGDWKSTMRSFREGVRCLGEENEALRTVRSDLDAISRKLTEKMNSLVEENGSFHKSMSTLLDDERRKVSIITDQNENLLHKLEELRKEYDDANKEISRLTDLVHTEKSRNNSVVGLFEKKLAEKEDEYQTELRLREQSLEKLKTQLEEKCSAYEAQLTDRDNLLQTERCQWKLQKEVYEKEIERLLSQVGKFAITQRSSSQQSTLGVDVAHAKPPLAPVPPPAPTDEEGDRAVVKKRRLEAVRQQRRLKENDKNDI | not soluble |
| MDLERLAQRLEGLRGYLDIPQKETRLKELERRLEDPSLWNDPEAARKVSQEAARLRRTVDTFRSLESDLQGLLELMEELPAEEREALKPELEEAAKKLDELYHQTLLNFPHAEKNAILTIQPGAGGTEACDWAEMLLRMYTRFAERQGFQVEVVDLTPGPEAGIDYAQILVKGENAYGLLSPEAGVHRLVRPSPFDASGRRHTSFAGVEVIPEVDEEVEVVLKPEELRIDVMRASGPGAQGVNTTDSAVRVVHLPTGITVTCQTTRSQIKNKELALKILKARLYELERKKREEELKALRGEVRPIEWGSQIRSYVLDKNYVKDHRTGLMRHDPENVLDGDLMDLIWAGLEWKAGRRQGTEEVEAE | soluble |
| MILINKRAEKQDYQTILAIWEKSVIVTHDFLTAEDRQFYKEQIPLFLDNVELFLWFAGEEVIGFSGTSERELDMLFLDPVATGNGYGSQILGWLIENKRINLVDVNEQNENATRFYLKHGFVVSSRSDLDGFGKPYPILQLQLK | not soluble |
| MQETRLMENEYSVNLPTKFWYRGKTYNGFINLVNIFRATMILGTPGSGKSYAIVNQFIKQTIEKSYALYIYDFKFDDLSVIAYNHLLKYRYRYKVPPKFYVINFDNPRKSHRCNPLAPELMTDISDAYESSYTIMLNLNKSWVQKQGDFFVESPIVLFTAIIWFLKIYEGGKFCTFPHAIELLNKRYEDVFTILTSYPDLENYLSPFIDAWKGGASEQLQGQIASAKIPLSRLISPQLYWVMSGSDFTLDINNPKEPKVLCVGNNPDRISIYGAALGLYNSRIVKLINKKKQLKSCVIIDELPTIFFKGLDNLIATARSNKVAVVLGFQDFSQLKRDYGDKEAAVIMSTVGNVFSGQVVGETAKTLSERFGKILQKRESMSINRNDTSTSINTQLDSLIPASKISTLSQGMFVGAVADNFGETIEQKIFHAQIVVDNEAVQKETAAYQPIPEISSFLDENGNDTMEQQIQANYRQIKQDIVELVENELIRIENDPELKYLLNNEM | not soluble |
| MGLQKKLNYKKTESERSFYRGSNLKQVMGEDIVSKFDYIGPIRWIFLNYCTGYFIFVEELTNNSEIRSDRLEFIDTMNKIFSEAEQYFNSAPKERPKNPKSLAEYKYLGYYRLSFSNTNPDNSAIIRLNDVEVEKSELPPLLNLDTDEILDYAV | not soluble |
| QAMTKTLRTPEHVYLCQRLRQARLDAGLTQADLAERLDKPQSFVAKVETRERRLDVIEFAKWMAACEGLDVVSEIVATIAEGRAQA | soluble |
| MIPFVWGICMPTLRNPQYRAFARRKLYRRQDGKCFYCHRDLTTKKTGELALTIEHRKAKMKGGTDDLKNLVAACWHCNHHRGEQMNATKQRKEAKALSRQRRMLARDCRSKADSQADGKAHEQLASKVEGNGANRTPSVHTARSEGLGLEHHHHHH | soluble |
| MARRNDHTREELVALTLDRVKQFLDTHSYHELSLRKVATMIGYVPSTLVNVFGNYNLLLLHVVAQTLDELAQEAQQAVKSTTYPKDALYQLAYCYHDFAKRNPYRWQLIFEHNMNGEMLPEWQAQRINNMTSMLEDLLKVIAPLRSEQEVLQASRVLWSGVHGITILSVDDKFFANEPIDGNALINNLLNHYLANW | not soluble |
| SLVSVRCAECKGKLLCGRSKCPLLEKYRFLKEIKIDSRILDPSPPSIFVGRVGYPKVYAGPLVSINADPVYADSPWLWKSIEEVIRLRTSMLRVSRRFRVEDVREEKKELTEMQEMTAAIKPVDVEAEIRKISRKAEFDDVMQPMGYSAIAESIKLAENPKIPDKVEKVYYDDMKAYEALSYLYNHGFSTYYLQKIFSAGILGERKSRKLVPTRWSITAVHSIVGEAIKREIAAYKPIDKTLLFNYEHFGNHFEVILSPENYFFQLVEIWQRKSFWSPKRTGLGLTART | soluble |
| MGSDKIHHHHHHMDVQVYFSKVEDPRVVGRCKHKLSDILVIALASYLCGGEDYESMHELCLERGASLRPPVELPNGCPSVDTFERVLQRIEPQSLYACLQVYGKELISDLEGKHIAIDGKRLKGSKKKTGSTHILSAWVDEVSLSLAQETVAEKRNELQAIPEVLDSLDLSGAVISINAMGTQTNIAEQIIQSEADYILSLKSNQKHLYEDVQDYFTGQYRCHRYETLEKDHGRIEKRTYTTLLASEVFEEGEYSQWQGLRSLIQVEREISSLEGETRIDRQYYISSLPPEDCQLIGQYIRGHWGIENRLHWHLDVTFREDTCRARKDYSATNLNTLRKFALAIVSGHKDKLSLRKRLFKAALNIDYLKKLLKI | not soluble |
| MISANRPIINLDLDLLRTFVAVADLNTFAAAAAAVCRTQSAVSQQMQRLEQLVGKELFARHGRNKLLTEHGIQLLGYARKILRFNDEACSSLMFSNLQGVLTIGASDESADTILPFLLNRVSSVYPKLALDVRVKRNAYMAEMLESQEVDLMVTTHRPSAFKALNLRTSPTHWYCAAEYVLQKGEPIPLVLLDDPSPFRDMVLATLNKVDIPWRLAYVASTLPAVRAAVKAGLGVTARPVEMMSPDLRVLSGVDGLPPLPDTEYLLCYDPSSNNELAQVIYQAMESYHNPWQYSPMSAPEGDDSLLIERDIE | not soluble |
| DPSKGRWVEGITSEGYHYYYDLISGASQWEKPEGFQGDLKKTAVKTVWVEGLSEDGFTYYYNTETGESRWEKPDD | soluble |
| MIDNFWRELPRPFFVLAPMEDVTDVVFRHVVSEAGRPDVFFTEFTNSDSYCHPEGMKSVRGRLIFTEDEQPMVAHIWGDNPEYFRQMSIGMAELGFKGIDINMGCPVPNVASRGKGSGLILRPDVAAELIQAAKAGGLPVSVKTRLGFKELSEWEDWLTHIFKQDIANLSIHLRTREEMSQVDAHWELIPEIKKLRDRIAPNTLITINGDILDRKMGLELAEKYGIDGVMIGRGIFKNPFAFEKEPREHSSKEHLDLLRLQLDLQDQYAEVLPRSITGLHRFFKIYVKGFPGAAELRNQLMSTKSTDEVRALLDKFEASVDEAQDSETV | not soluble |
| MLTVTDYYKELLNFCARTLKDRDAAADLVQEAYTRFLVAQRSGAAIADPRALLFRTTRNLLIDQHRRAEVRMHLSLDTLLEEEQPLAPRHLQPEEVLAFSRYAQALYAAIESLPRRCREAFILNRFDGLSHQEVAEKMGISRNMVAQHIIRGVLVCKACDDRFHGRVVLASKPAE | not soluble |
| MLDGLTYAYGDLIEKVPDFEIIQRKSPKSGKVALVSGGGSGHKPAHAGFVGEGMLSAAVCGAIFTSPTPDQIYEAIKSADEGAGVLLIIKNYLGDVMNFEMAREMAEMEEIKVEQIIVDDDIAVENSLYTQGRRGVAGTVLVHKILGAAAHQEASLDEIKDLADKVVKNIKTIGLALSAATVPEVGKPGFVLDDNEIEYGVGIHSEPGYRREKMKTSYELATELVGKLKEEFKFEAGQKYGILVNGMGATPLMEQFIFMNDVAKLLTEENIEILFKKVGNYMTSIDMAGLSLTMIKLEDDQWLKNLNEDVKTISWGLEHHHHHH | not soluble |
| MDNLKDFKNEALVVTNASDGNTPHIVQGIEPDGSLRTKPLAQAKPSETFLHIDRNKSVIGTFFSNMNRQYDRPSDFRFYHLPVEMLSAAKDLVEIFKFPEENGQLLSNYAIDIRQPAQEQSITGDTPQQTTRWGVDEVDWQQLARMGVTPESLGETGMQRLLNGHESAVLDIRISFEGIDFETPACIRLVESAGGKPVLNVECCKRYPELDRPYMGTELSPEVKENLSRSNNAGCVVELELAGGVREPCLLSLNPKTNRLHHVPVSEITIPQEVNRVRLSDDQTTRLARGESVLVENMWSEKKQGYYDARLQYNVCKGGFTYDFRGLNRKQAQSETQMRSRELVIPQVLKGVGLTPEVREKLAAGKTVHIKDMTDNEGNLFSAFVRVNHERAKFDFFKWNPDKSKKQGQSQQAAVRQEGTKPENTVSRNRPVQKTDKKGVSI | not soluble |
| MVVGDFPIETDTIVIGAGPGGYVAAIRAAQLGQKVTIVEKGNLGGVCLNVGCIPSKALLHASHRFVEAQHSENLGVIAESVSLNFQKVQEFKSSVVNKLTGGVEGLLKGNKVNIVKGEAYFVDNNSLRVMDEKSAQTYNFKNAIIATGSRPIEIPNFKFGKRVIDSTGALNLQEVPGKLVVVGGGYIGSELGTAFANFGSEVTILEGAKDILGGFEKQMTQPVKKGMKEKGVEIVTEAMAKSAEETDNGVKVTYEAKGEEKTIEADYVLVTVGRRPNTDELGLEELGVKFADRGLLEVDKQSRTSISNIYAIGDIVPGLPLAHKASYEAKVAAEAIDGQAAEVDYIGMPAVCFTEPELATVGYSEAQAKEEGLAIKASKFPYAANGRALSLDDTNGFVKLITLKEDDTLIGAQVVGTGASDIISELGLAIEAGMNAEDIALTIHAHPTLGEMTMEAAEKAIGYPIHTM | not soluble |
| GERLSEAEVLSLFDLPLPELAAAAHEVRLKKTDPEVVTFLIDRNINYTNVCTVACAFCAFYRTKRQKDAYTLSYEEIARKVEELYQVGGRRILMQGGVNPELPLVWYLDLLRYLKSRFPDLRIDAFSPEEILGLERLTGLRAEAILEKLKEAGLDGLPGAGAEILVDEVRLKAAPARIRTADWYRIVDAAQALGLYTLATMVIGFGEGPKERTAHLLGLRAQQDRALERYENGFAAFALWTLQVEHTRLKGKAPGATAHEYLKTLAVARLALDNFAHFQASWPTLGFKVAQAALYYGADDFGSTMLEENVVSAAGGHGRTHATVRQIVRHIVDAGFKPAER | not soluble |
| MSLVNQLSLFIDVVQQGSFTKAAALHDMDNSALSKQIKKLEAELGVQLLNRSTRTFSLTPAGEEILEQAYQLVGSLDNVKSIADSYQAVPKGRIRITAPLHIGQGYLQPVISQFMTTYPDVEVVLMMDDKRSDIISEHFDVAFRLGRLDDSSLIAKKVADIRGVILASHSLIERFGEPSTPEELVNLPSVIYSNGTLTVDTVRLGESPDSSQFKSYKMKGNYKVNDVRTLLSAVQDGLGYAVVASSNLERSIESMGLTTLLTDYPLCNQGLAIYALYPHRKQTALVREFISAVQKHIGHPPLWEQHIPNFASLYPVKKGQ | not soluble |
| MVSQVRQNYHSDCEAAVNRMLNLELYASYTYSSMYAFFDRDDVALHNVAEFFKEHSHEEREHAEKFMKYQNKRGGRVVLQDIKKPERDEWGNTLEAMQAALQLEKTVNQALLDLHKLATDKVDPHLCDFLESEYLEEQVKDIKRIGDFITNLKRLGLPENGMGEYLFDKHSVKESS | soluble |
| MGSDKIHHHHHHMFDWNDVRFFLALQRNGKLLGAARQMGTTHATVARHIAALEKVLGQPLFVQQADGYSLTAAGRQLLPLAESLENTASQMLDSGSKGHAEVSGVVRLGAPEGLGALFLARHMPALMARYPELEIDLVAVPRFVSVTSREVDIAIALERPQANMVVTRKLTDYCLGLYATQAYLAAHPPIREREDLNGHAILAYVDDLLFTRELMYHHGLCRHPSMPLRSTSVVAQREAALADGGIAVLPYYTTYDDPRLTQILPELRIIRSYWISARSNIRRTLRYRVVWDYVVELCQNMQWLLLQEEQNRSIETA | not soluble |
